Results reported in patent US20020102617A1 (published 2002).

T1: Cy3-conjugated IκBα (UniProt P25963 1-317, limits assumed, Cy3 label (monofunctional reactive dye; site not stated))
T1 construct: Used in solution at 0.1 ug/ml; also called Cy3-IκBα
T1 sequence (looked up): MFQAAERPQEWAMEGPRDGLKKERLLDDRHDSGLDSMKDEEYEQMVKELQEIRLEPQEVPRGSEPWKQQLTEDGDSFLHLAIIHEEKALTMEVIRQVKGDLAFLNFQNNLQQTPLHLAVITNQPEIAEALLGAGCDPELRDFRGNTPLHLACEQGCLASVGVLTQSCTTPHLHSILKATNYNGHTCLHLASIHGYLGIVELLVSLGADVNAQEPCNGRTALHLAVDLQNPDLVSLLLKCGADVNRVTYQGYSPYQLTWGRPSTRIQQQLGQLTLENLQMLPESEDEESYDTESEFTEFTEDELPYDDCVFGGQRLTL


Biological target: T1, Cy3-conjugated IκBα
Assay: protein microarray on aldehyde glass slide, fluorescent probe in solution (FIG. 1B)

Row | binding result | Binder
1 | no binding (tested: 0.1 µg/ml) | GST-FRB (other, domain: FRB domain of FRAP; Produced recombinantly in E. coli; The text calls the spotted protein both 'GST-FRB' and 'FRB'; also called FRB domain of FRAP; not shown: GST (glutathione S-transferase) fusion partner) ELIRVAILWHEMWHEGLEEASRLYFGERNVKGMFEVLEPLHAMMERGPQTLKETSFNQAYGRDLMEAQEWCRKYMKSGNVKDLTQAWDLYYHVFRRISKQ
2 | no binding (tested: 0.1 µg/ml) | Protein G (other, UniProt P19909 303-497, looked up, Spotted on aldehyde (SMA) glass slides at 100 ug/ml; The commercial product may be a truncated recombinant form) TYKLILNGKTLKGETTTEAVDAATAEKVFKQYANDNGVDGEWTYDDATKTFTVTEKPEVIDASELTPAVTTYKLVINGKTLKGETTTEAVDAATAEKVFKQYANDNGVDGEWTYDDATKTFTVTEKPEVIDASELTPAVTTYKLVINGKTLKGETTTKAVDAETAEKAFKQYANDNGVDGVWTYDDATKTFTVTE
